Reference: US20180051059A1

Target: endogenous Ldb1 complexes at the LCR (in G1E cells) (UniProt P70662)
Experiment: cell-based or functional assay

Chain of UniProt P70662 (P70662 2-411 limits assumed, one chain of several): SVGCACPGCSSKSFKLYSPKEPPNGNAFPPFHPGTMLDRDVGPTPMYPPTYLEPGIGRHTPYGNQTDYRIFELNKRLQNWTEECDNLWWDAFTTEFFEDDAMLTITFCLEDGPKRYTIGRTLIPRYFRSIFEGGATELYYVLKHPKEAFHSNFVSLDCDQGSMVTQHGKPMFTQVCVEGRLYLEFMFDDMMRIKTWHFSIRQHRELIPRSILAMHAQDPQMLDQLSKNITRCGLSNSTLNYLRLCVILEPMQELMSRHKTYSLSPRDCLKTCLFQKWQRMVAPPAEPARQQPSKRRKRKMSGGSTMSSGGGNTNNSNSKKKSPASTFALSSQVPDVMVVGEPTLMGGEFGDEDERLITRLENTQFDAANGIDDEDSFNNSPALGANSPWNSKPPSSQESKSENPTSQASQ

P-Ldb1 (P-ZF, zinc finger protein targeting the β-major promoter, fused to full length Ldb1)
β-globin transcription in G1E cells (RT-qPCR): > 1000 fold
